Source: PMC2573054

Target: His-Rac2 (hexahistidine-tagged Rac2^G12V, aa 2-177) (human) (UniProt P15153)
Assay: SPR

## PLCβ2 (PH-C2) (domain or fragment)
  Kd: 6 µM
  kon: 385 M⁻¹ s⁻¹
